{"source": "patent US20180155431A1", "about": "(Hoffmann-La Roche, published 2018)", "biological_target": "T1, human angiopoietin 2 (human, UniProt O15123 19-496, limits assumed)", "T1 construct": "The protein was bought (R&D Systems Cat. No. 623-AN) or produced in house; also called ANG-2; ANGPT2", "T1 sequence": "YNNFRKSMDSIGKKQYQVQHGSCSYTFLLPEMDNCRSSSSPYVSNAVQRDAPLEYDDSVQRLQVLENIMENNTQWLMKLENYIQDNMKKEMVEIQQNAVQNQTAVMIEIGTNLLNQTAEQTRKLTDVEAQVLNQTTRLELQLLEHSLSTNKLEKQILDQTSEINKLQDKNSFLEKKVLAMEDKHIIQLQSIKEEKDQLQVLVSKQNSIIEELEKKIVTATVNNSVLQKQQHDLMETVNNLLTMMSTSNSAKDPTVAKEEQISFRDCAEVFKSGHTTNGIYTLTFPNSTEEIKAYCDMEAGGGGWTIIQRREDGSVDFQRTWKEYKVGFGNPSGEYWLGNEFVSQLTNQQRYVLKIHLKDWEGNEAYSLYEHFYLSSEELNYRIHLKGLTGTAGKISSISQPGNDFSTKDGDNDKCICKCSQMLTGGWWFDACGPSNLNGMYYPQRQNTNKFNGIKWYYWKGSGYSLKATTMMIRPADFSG", "assay": "ANG-2/Tie2 interaction ELISA: antibody dilutions pre-incubated with 0.2 ug/ml human ANG-2, then added to plate-coated human Tie2; bound ANG-2 detected", "method": "After washing a mixture of 0.5 μg/ml biotinylated anti-Angiopoietin-1/2 clone (R&D Systems #BAF923, BAM0981 R&D Systems, UK) and 1:3000 diluted streptavidin HRP (Roche Diagnostics GmbH, DE, Cat. No. 11089153001) was added for 1 h. Thereafter the plates were washed 6 times with PBST. Plates were developed with freshly prepared ABTS reagent (Roche Diagnostics GmbH, DE, buffer #204 530 001, tablets #11 112 422 001) for 30 minutes at RT. Absorbance was measured at 405 nm."}
{"binder": "<ANG-2> LC06 (antibody, V domains shown) VH: not shown VL: QPGLTQPPSVSVAPGQTARITCGGNNIGSKSVHWYQQKPGQAPVLVVYDDSDRPSGIPERFSGSNSGNTATLTISRVEAGDEADYYCQVWDSSSDHYVFGTGTKVTVLG", "values": [{"measurement": "IC50", "value": 0.1, "unit": "nM"}]}
